Laboratory results as given in patent US20260226179A1 (MAB DESIGNS, published 2026).

T1: human soluble IL-6R (human, UniProt P08887 20-357)
T1 sequence: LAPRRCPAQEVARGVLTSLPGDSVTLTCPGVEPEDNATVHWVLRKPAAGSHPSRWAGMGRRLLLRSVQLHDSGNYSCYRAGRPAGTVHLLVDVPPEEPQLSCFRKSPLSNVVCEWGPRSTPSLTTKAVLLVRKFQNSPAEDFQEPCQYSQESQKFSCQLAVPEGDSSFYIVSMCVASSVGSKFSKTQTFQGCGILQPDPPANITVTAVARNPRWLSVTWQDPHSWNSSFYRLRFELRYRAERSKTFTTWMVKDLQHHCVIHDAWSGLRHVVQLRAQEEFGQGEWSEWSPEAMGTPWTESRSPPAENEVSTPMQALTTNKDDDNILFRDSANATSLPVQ

T2: human membrane-bound IL-6R subunit alpha (human, UniProt P08887 20-468)
T2 sequence: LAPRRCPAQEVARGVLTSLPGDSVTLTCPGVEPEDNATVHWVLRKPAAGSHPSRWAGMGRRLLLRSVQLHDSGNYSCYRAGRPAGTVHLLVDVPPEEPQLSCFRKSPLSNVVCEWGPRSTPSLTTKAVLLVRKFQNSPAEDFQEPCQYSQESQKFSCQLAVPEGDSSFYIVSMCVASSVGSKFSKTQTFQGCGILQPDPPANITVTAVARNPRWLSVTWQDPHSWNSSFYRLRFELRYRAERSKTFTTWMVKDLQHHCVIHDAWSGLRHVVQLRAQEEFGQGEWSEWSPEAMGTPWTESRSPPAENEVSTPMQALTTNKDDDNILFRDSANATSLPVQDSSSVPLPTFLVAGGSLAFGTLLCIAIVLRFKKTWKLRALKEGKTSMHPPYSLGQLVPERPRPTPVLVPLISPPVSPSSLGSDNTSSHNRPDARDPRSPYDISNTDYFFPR

B1: candidate anti-IL-6R Fab clone 09 (Fab, V domains shown)
VH: EVQLVESGGDLVQPGGSLKLSCAASGFTFSNYGMSWVRQTPDKRLELVAAINSNGGSTYYPDSVKGRFTISRDNAKNTLYLQMSSLKSEDTAMYYCARDGNYVSDYWGQGTTLTVSS
VL: DIVLTQSPASLAVSLGQRATISCRASESVDSYGNSFMHWYQQKPGQPPKLLIYLASNLESGVPARFSGSGSRTDFTLTIDPVEADDAATYYCQQNNEDPWTFGGGTKLEIK
B2: candidate anti-IL-6R Fab clone 12 (Fab, V domains shown)
VH: EVKLMESGGGLVQPGGSLKLSCAASGFTFSNYGMSWVRQTPDKRLEWVANINSNGGSTYYPDSVKGRFTISRDNAQNTLYLQMSSLKSEDTAMYYCTRDGNFVSDYWGQGTTLTVSS
VL: DIVLTQSPASLAVSPGQRATISCRASESVDSYGNSFMNWYQQKPGQPPKLLIYLASNLESGVPARFSGSGSRTDFTLTIDPVEADDAATYYCQQNNEDPYTFGGGTKLEIK
B3: candidate anti-IL-6R Fab clone 19 (Fab, V domains shown)
VH: EVKLMESGGGLVQPGGSLKLSCAASGFTFSNYGMSWVRQTPDKRLELVAIMNSKGGSTYYPDSVMGRFTISRDNAKNTLYLQMSSLKSEDTAMYYCARDGYYTMDYWGQGTSVTVSS
VL: DIVLTQSPASLAVSLGQRATISCRASKSVDSFGNSFMHWYQQKPGQSPRLLIFLASNLESGVPARFSGSGSRTDFTLTIDPVEADDAATYYCQQNNEDPYTFGGGTKLEIK

What was measured:
Assay in all cases: cell-based or functional assay
human soluble IL-6R [1] = molecular target: T1, human soluble IL-6R
[2] = molecular target: T2, human membrane-bound IL-6R subunit alpha
human soluble IL-6R [3] = molecular target: T1, human soluble IL-6R; remark: listed apart in the source
human soluble IL-6R [4] = molecular target: T1, human soluble IL-6R; remark: listed apart in the source
[5] = molecular target: T2, human membrane-bound IL-6R subunit alpha; remark: listed apart in the source

Binder | Proliferation in % (Ba/F3_gp130 cells, IL-6 + sIL-6R = 100%; IL-6 trans signalling; 1% PE) (human soluble IL-6R [1]) [%] | Proliferation in % (Ba/F3_gp130_IL-6R cells, IL-6 + sIL-6R = 100%; combined IL-6 classical and trans signalling; 1% PE) [2] [%] | Classical:trans signalling ratio proliferation (human soluble IL-6R [3]) [ratio] | Classical:trans signalling ratio intracellular signalling (human soluble IL-6R [4]) [ratio] | Residual STAT3 phosphorylation in HEK293 (IL-6 + sIL-6R; IL-6 trans signalling; 1% PE) (human soluble IL-6R [4]) [%] | Residual STAT3 phosphorylation in HEK293_IL-6R (IL-6 + sIL-6R; combined classical and trans signalling; 1% PE) [5] [%]
B1 | 69.8 | 91.6 | 1.3 | 2.2 | 38 | 83
B2 | 47.9 | 61.6 | 1.3 | 2.1 | 42 | 90
B3 | 53.3 | 73.3 | 1.4 | 3 | 24 | 72
